# Results reported in PMC4139326, “Functional Roles of the Dimer-Interface Residues in Human Ornithine Decarboxylase” (PLoS ONE, 2014).
# Like-named read-outs stand apart in the source and are kept apart here.
# T1: human antizyme inhibitor (human), O14977
# T1 chain: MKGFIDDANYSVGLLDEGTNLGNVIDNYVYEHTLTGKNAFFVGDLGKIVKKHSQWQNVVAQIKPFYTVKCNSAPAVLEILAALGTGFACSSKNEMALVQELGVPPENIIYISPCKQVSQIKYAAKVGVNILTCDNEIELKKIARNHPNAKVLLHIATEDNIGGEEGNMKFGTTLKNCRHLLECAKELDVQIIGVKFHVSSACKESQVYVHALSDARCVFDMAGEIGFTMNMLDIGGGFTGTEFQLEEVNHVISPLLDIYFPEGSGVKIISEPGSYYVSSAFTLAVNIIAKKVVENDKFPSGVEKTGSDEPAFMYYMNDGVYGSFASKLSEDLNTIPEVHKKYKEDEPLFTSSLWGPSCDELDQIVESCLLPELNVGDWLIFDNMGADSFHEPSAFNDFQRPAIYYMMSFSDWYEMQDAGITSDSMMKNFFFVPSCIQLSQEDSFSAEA
# How the values were obtained:
# [1] = target: ornithine decarboxylase (Homo sapiens) (UniProt P11926); conditions: cited from earlier work
# [2] = target: antizyme inhibitor (Homo sapiens) (UniProt O14977); conditions: cited from earlier work
# [3] = target: antizyme inhibitor (Homo sapiens) (UniProt O14977); conditions: cited from earlier work; remark: listed apart in the source
# [4] = target: ornithine decarboxylase (Homo sapiens) (UniProt P11926); conditions: cited from earlier work; remark: listed apart in the source
# [5] = target: the molecule itself; test: AUC; sedimentation velocity, 0.3, 0.6 and 0.9 mg/ml protein in 50 mM Tris-HCl pH 7.5, 293 K, 42,000 rpm; global fit to a monomer-dimer equilibrium model (SEDPHAT); dimer to monomers
# [6] = target: T1, human antizyme inhibitor (human), O14977; test: as above; conditions: remark: other sources report otherwise
# Chain of antizyme (P54368 whole entry): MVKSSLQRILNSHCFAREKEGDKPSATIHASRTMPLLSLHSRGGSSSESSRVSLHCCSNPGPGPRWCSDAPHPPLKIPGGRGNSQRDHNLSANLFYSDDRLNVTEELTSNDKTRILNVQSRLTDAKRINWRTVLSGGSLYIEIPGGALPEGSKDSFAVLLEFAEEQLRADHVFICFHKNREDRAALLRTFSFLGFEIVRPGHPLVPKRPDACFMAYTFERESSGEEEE
# Chain of ornithine decarboxylase (P11926 whole entry): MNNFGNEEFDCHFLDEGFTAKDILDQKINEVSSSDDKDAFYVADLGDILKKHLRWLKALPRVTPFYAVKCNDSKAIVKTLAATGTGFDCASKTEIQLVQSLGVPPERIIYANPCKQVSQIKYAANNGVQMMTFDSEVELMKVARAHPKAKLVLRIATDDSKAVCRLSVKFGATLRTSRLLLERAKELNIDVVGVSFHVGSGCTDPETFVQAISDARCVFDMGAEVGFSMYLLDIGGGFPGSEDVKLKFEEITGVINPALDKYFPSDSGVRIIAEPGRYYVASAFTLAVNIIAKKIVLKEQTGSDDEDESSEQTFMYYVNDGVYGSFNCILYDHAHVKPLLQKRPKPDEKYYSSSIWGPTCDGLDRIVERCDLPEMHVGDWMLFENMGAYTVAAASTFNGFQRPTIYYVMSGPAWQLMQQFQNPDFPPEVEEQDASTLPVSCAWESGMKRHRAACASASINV
# Chain of ornithine decarboxylase (Homo sapiens) (P11926 whole entry): as above
Molecule,Kd [5],also measured
antizyme (from UniProt P54368),,Kd [1]: 200 nM; Kd [2]: 20 nM
antizyme inhibitor (from UniProt O14977),,Kd [3]: 84000 nM
ornithine decarboxylase (from UniProt P11926),,Kd [4]: 180 nM
"human ornithine decarboxylase K169A (enzyme, ornithine decarboxylase (ODC), human; cDNA cloned into pQE30) EEFDCHFLDEGFTAKDILDQKINEVSSSDDKDAFYVADLGDILKKHLRWLKALPRVTPFYAVKCNDSKAIVKTLAATGTGFDCASKTEIQLVQSLGVPPERIIYANPCKQVSQIKYAANNGVQMMTFDSEVELMKVARAHPKAKLVLRIATDDSKAVCRLSVAFGATLRTSRLLLERAKELNIDVVGVSFHVGSGCTDPETFVQAISDARCVFDMGAEVGFSMYLLDIGGGFPGSEDVKLKFEEITGVINPALDKYFPSDSGVRIIAEPGRYYVASAFTLAVNIIAKKIVLKEQTGSDDEDESSEQTFMYYVNDGVYGSFNCILYDHAHVKPLLQKRPKPDEKYYSSSIWGPTCDGLDRIVERCDLPEMHVGDWMLFENMGAYTVAAASTFNGFQRPTIYYVMSGPAWQLMQQFQNPDFPP",300 ± 8 nM,
"human ornithine decarboxylase R277S (enzyme, ornithine decarboxylase (ODC), human; cDNA cloned into pQE30) EEFDCHFLDEGFTAKDILDQKINEVSSSDDKDAFYVADLGDILKKHLRWLKALPRVTPFYAVKCNDSKAIVKTLAATGTGFDCASKTEIQLVQSLGVPPERIIYANPCKQVSQIKYAANNGVQMMTFDSEVELMKVARAHPKAKLVLRIATDDSKAVCRLSVKFGATLRTSRLLLERAKELNIDVVGVSFHVGSGCTDPETFVQAISDARCVFDMGAEVGFSMYLLDIGGGFPGSEDVKLKFEEITGVINPALDKYFPSDSGVRIIAEPGSYYVASAFTLAVNIIAKKIVLKEQTGSDDEDESSEQTFMYYVNDGVYGSFNCILYDHAHVKPLLQKRPKPDEKYYSSSIWGPTCDGLDRIVERCDLPEMHVGDWMLFENMGAYTVAAASTFNGFQRPTIYYVMSGPAWQLMQQFQNPDFPP",80 ± 6 nM,
"human ornithine decarboxylase Y331S (enzyme, ornithine decarboxylase (ODC), human; cDNA cloned into pQE30) EEFDCHFLDEGFTAKDILDQKINEVSSSDDKDAFYVADLGDILKKHLRWLKALPRVTPFYAVKCNDSKAIVKTLAATGTGFDCASKTEIQLVQSLGVPPERIIYANPCKQVSQIKYAANNGVQMMTFDSEVELMKVARAHPKAKLVLRIATDDSKAVCRLSVKFGATLRTSRLLLERAKELNIDVVGVSFHVGSGCTDPETFVQAISDARCVFDMGAEVGFSMYLLDIGGGFPGSEDVKLKFEEITGVINPALDKYFPSDSGVRIIAEPGRYYVASAFTLAVNIIAKKIVLKEQTGSDDEDESSEQTFMYYVNDGVYGSFNCILSDHAHVKPLLQKRPKPDEKYYSSSIWGPTCDGLDRIVERCDLPEMHVGDWMLFENMGAYTVAAASTFNGFQRPTIYYVMSGPAWQLMQQFQNPDFPP",1100 ± 8 nM,
"human ornithine decarboxylase V322D (enzyme, ornithine decarboxylase (ODC), human; cDNA cloned into pQE30) EEFDCHFLDEGFTAKDILDQKINEVSSSDDKDAFYVADLGDILKKHLRWLKALPRVTPFYAVKCNDSKAIVKTLAATGTGFDCASKTEIQLVQSLGVPPERIIYANPCKQVSQIKYAANNGVQMMTFDSEVELMKVARAHPKAKLVLRIATDDSKAVCRLSVKFGATLRTSRLLLERAKELNIDVVGVSFHVGSGCTDPETFVQAISDARCVFDMGAEVGFSMYLLDIGGGFPGSEDVKLKFEEITGVINPALDKYFPSDSGVRIIAEPGRYYVASAFTLAVNIIAKKIVLKEQTGSDDEDESSEQTFMYYVNDGDYGSFNCILYDHAHVKPLLQKRPKPDEKYYSSSIWGPTCDGLDRIVERCDLPEMHVGDWMLFENMGAYTVAAASTFNGFQRPTIYYVMSGPAWQLMQQFQNPDFPP",560 ± 12 nM,
"human ornithine decarboxylase D332E (enzyme, ornithine decarboxylase (ODC), human; cDNA cloned into pQE30) EEFDCHFLDEGFTAKDILDQKINEVSSSDDKDAFYVADLGDILKKHLRWLKALPRVTPFYAVKCNDSKAIVKTLAATGTGFDCASKTEIQLVQSLGVPPERIIYANPCKQVSQIKYAANNGVQMMTFDSEVELMKVARAHPKAKLVLRIATDDSKAVCRLSVKFGATLRTSRLLLERAKELNIDVVGVSFHVGSGCTDPETFVQAISDARCVFDMGAEVGFSMYLLDIGGGFPGSEDVKLKFEEITGVINPALDKYFPSDSGVRIIAEPGRYYVASAFTLAVNIIAKKIVLKEQTGSDDEDESSEQTFMYYVNDGVYGSFNCILYEHAHVKPLLQKRPKPDEKYYSSSIWGPTCDGLDRIVERCDLPEMHVGDWMLFENMGAYTVAAASTFNGFQRPTIYYVMSGPAWQLMQQFQNPDFPP",30 ± 7 nM,
"human ornithine decarboxylase K294A (enzyme, ornithine decarboxylase (ODC), human; cDNA cloned into pQE30) EEFDCHFLDEGFTAKDILDQKINEVSSSDDKDAFYVADLGDILKKHLRWLKALPRVTPFYAVKCNDSKAIVKTLAATGTGFDCASKTEIQLVQSLGVPPERIIYANPCKQVSQIKYAANNGVQMMTFDSEVELMKVARAHPKAKLVLRIATDDSKAVCRLSVKFGATLRTSRLLLERAKELNIDVVGVSFHVGSGCTDPETFVQAISDARCVFDMGAEVGFSMYLLDIGGGFPGSEDVKLKFEEITGVINPALDKYFPSDSGVRIIAEPGRYYVASAFTLAVNIIAKAIVLKEQTGSDDEDESSEQTFMYYVNDGVYGSFNCILYDHAHVKPLLQKRPKPDEKYYSSSIWGPTCDGLDRIVERCDLPEMHVGDWMLFENMGAYTVAAASTFNGFQRPTIYYVMSGPAWQLMQQFQNPDFPP",100 ± 8 nM,
"human antizyme inhibitor, O14977 1-448 (natural protein) MKGFIDDANYSVGLLDEGTNLGNVIDNYVYEHTLTGKNAFFVGDLGKIVKKHSQWQNVVAQIKPFYTVKCNSAPAVLEILAALGTGFACSSKNEMALVQELGVPPENIIYISPCKQVSQIKYAAKVGVNILTCDNEIELKKIARNHPNAKVLLHIATEDNIGGEEGNMKFGTTLKNCRHLLECAKELDVQIIGVKFHVSSACKESQVYVHALSDARCVFDMAGEIGFTMNMLDIGGGFTGTEFQLEEVNHVISPLLDIYFPEGSGVKIISEPGSYYVSSAFTLAVNIIAKKVVENDKFPSGVEKTGSDEPAFMYYMNDGVYGSFASKLSEDLNTIPEVHKKYKEDEPLFTSSLWGPSCDELDQIVESCLLPELNVGDWLIFDNMGADSFHEPSAFNDFQRPAIYYMMSFSDWYEMQDAGITSDSMMKNFFFVPSCIQLSQEDSFSAEA",,Kd [6]: 72300 nM
